Legend:
Assay in all cases: cell-based or functional assay
[1] = biological target: SARS-CoV-2 B.1.1.7假病毒的S蛋白 (SARS-CoV-2 B.1.1.7)
[2] = biological target: SARS-CoV-2 B.1.351假病毒的S蛋白 (SARS-CoV-2 B.1.351)
[3] = biological target: SARS-CoV-2 B.1.617假病毒的S蛋白 (SARS-CoV-2 B.1.617)

Binder	中和IC50, 假病毒中和试验 [1] [µg/mL]	中和IC50, 假病毒中和试验 [2] [µg/mL]	中和IC50, 假病毒中和试验 [3] [µg/mL]	半数抑制浓度(IC50), 假病毒中和试验 [1] [mg/L]	半数抑制浓度(IC50), 假病毒中和试验 [2] [mg/L]	半数抑制浓度(IC50), 假病毒中和试验 [3] [mg/L]
单抗3H3 (antibody, V domains shown, also called 抗体3H3) VH: QVQLQQPGAELVRPGASVKLSCKASGYSFTRFWMNWVKQRPGQGLEWIGMIHPSDSETRLNQKFKDKATLTVDKSSTTAYMQLSSPTSEDSAVYYCARKDYDYDAWFAYWGQGTLVTVSA VL: DIVLTQSPASLAVSLGQRATISCRASKSVSASVYSYMHWYQQKPGQPPKLLIYLASSLESGVPARFSGSGSGTDFTLNIHPVEEEDAATYYCHHSRELPPAFGGGTKLEIKR	0.191	0.107	0.098			
单抗5G2 (antibody, also called 抗体5G2) heavy: EVLLQQSGPELVKPGASVKIPCKASGYTFTDYNMDWVKQSHGKSLEWIGDINPNSGFIIYNQKFKGKASLTVDKSSSTAYMELRSLTSEDTAVYYCAREGYGNNFDYWGQGTTLSVSSAKTTPPSVYPLAPGCGDTTGSSVTLGCLVKGYFPESVTVTWNSGSLSSSVHTFPALLQSGLYTMSSSVTVPSSTWPSQTVTCSVAHPASSTTVDKKLEPSGPISTINPCPPCKECHKCPAPNLEGGPSVFIFPPNIKDVLMISLTPKVTCVVVDVSEDDPDVQISWFVNNVEVHTAQTQTHREDYNSTIRVVSTLPIQHQDWMSGKEFKCKVNNKDLPSPIERTISKIKGLVRAPQVYILPPPAEQLSRKDVSLTCLVVGFNPGDISVEWTSNGHTEENYKDTAPVLDSDGSYFIYSKLNMKTSKWEKTDSFSCNVRHEGLKNYYLKKTISRSPGK light: DILLTQSPTILSVSPGERVSFSCRASQSIGTSIHWYQQRTKGSPRLLIKYASESISGIPSRFSGSGSGTDFTLSINSVESEDIGDYYCQQSYSWPTTFGAGTKLELK				0.482	0.367	0.103
